Laboratory results taken from paper PMC3215731.

Biological target: TNC-scTNFR2 (trimerization domain of human tenascin C fused to the N-terminus of the TNFR2-selective single-chain TNF) (human) (UniProt P24821)
Assay: SEC; HPLC-SEC, BioSep-SEC-S2000 7.8x300 column, PBS, 0.5 ml/min, 50 µl sample at 0.1 to 0.5 mg/ml, against standard proteins; oligomerization state under native conditions

- stoichiometry N: 3
Substance: TNC-scTNFR2 (trimerization domain of human tenascin C fused to the N-terminus of the TNFR2-selective single-chain TNF) (from UniProt P24821 110-139) (ligand)
